Earlier results in article PMC9363672.

Target: syndecan 3 (Homo sapiens) (UniProt O75056)
Chain of UniProt O75056 (O75056 whole entry): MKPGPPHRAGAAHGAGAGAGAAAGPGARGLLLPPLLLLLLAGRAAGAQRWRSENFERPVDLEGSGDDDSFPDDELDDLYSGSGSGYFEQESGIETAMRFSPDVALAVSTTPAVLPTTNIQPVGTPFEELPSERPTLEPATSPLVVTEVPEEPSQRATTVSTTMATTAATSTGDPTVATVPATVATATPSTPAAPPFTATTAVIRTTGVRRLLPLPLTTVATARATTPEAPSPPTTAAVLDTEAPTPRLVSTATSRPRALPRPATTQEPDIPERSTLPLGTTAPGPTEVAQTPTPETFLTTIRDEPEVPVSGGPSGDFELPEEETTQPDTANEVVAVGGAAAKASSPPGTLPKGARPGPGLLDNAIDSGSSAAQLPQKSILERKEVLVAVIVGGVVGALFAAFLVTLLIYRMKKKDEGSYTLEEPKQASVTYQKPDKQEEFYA

Kd: 6 nM
Substance: pleiotrophin (from UniProt P21246)
